Reference: paper PMC3961337 (2014)

Key:
[1] = biological target: T1, zinc-binding anti-sigma (ZAS) protein RsrA (S. coelicolor M145, UniProt Q7AKG8 1-105); test: BLI
T1 chain: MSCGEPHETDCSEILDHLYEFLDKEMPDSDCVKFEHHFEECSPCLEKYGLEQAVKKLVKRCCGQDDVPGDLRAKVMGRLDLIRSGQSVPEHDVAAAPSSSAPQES

[2] = biological target: T2, rsrA-cfp-pET28a (+) protein (RCP) (S. coelicolor M145, UniProt Q7AKG8 1-105); test: BLI
T2 chain: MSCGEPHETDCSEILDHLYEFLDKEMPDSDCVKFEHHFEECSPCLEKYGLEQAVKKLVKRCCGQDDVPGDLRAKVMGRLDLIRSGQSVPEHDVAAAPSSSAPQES

B1: sigma factor σ^R (natural protein)
chain: not shown
modifications: biotinylated before capture on streptavidin biosensor tips
[1]
  Kd: 47 nM
[2]
  Kd: 72 nM

B2: sigR-yfp-pET28a (+) protein (SYP) (natural protein)
chain: not shown
modifications: biotinylated for the biolayer interferometry only
[1]
  Kd: 52 nM
